From article PMC10153361, “Mechanism of imidazole inhibition of a GH1 β‐glucosidase” (FEBS Open Bio, 2023)

Substrate: O=[N+]([O-])c1ccc(O[C@@H]2O[C@H](CO)[C@@H](O)[C@H](O)[C@H]2O)cc1
Test: purified protein
Assay type: biochemical, Spodoptera frugiperda
Details: 100 mM phosphate pH 6.0, 30 °C

B1: Sfβgly (GH1 β-glucosidase from Spodoptera frugiperda) (Spodoptera frugiperda) (protein)
chain: QQRRFPDDFLFGTATASYQIEGAWDEDGKGENIWDYMVHNTPEVIRDLSNGDIAADSYHNYKRDVEMMRELGLDAYRFSLSWARILPTGMANEVNPAGIAFYNNYIDEMLKYNITPLITLYHWDLPQKLQELGGFANPLISDWFEDYARVVFENFGDRVKMFITFNEPREICFEGYGSATKAPILNATAMGAYLCAKNLVTAHAKAYYLYDREFRPVQGGQCGITISVNWFGPATPTPEDEMAAELRRQGEWGIYAHPIFSAEGGFPKELSDKIAEKSAQQGYPWSRLPEFTEEEKAFVRGTSDLIGVNHYTAFLVSATERKGPYPVPSLLDDVDTGSWADDSWLKSASAWLTLAPNSIHTALTHLNNLYNKPVFYITENGWSTDESRENSLIDDDRIQYYRASMESLLNCLDDGINLKGYMAWSLMDNFEWMEGYIERFGLYEVDFSDPARTRTPRKAAFVYKHIIKHRVVDYEYEPETMVMTIDEGH
notes: recombinant, E. coli BL21(DE3), vector pET46, Ni-NTA purified; secreted digestive midgut enzyme; catalytic residues E187 and E399
In the case of B1, the Km is reported as 1730 ± 40 µM and the kcat is reported as 1.33 ± 0.333 s⁻¹.
